Test results taken from the Immune Epitope Database (IEDB).

What follows are sequences tested against HLA-A*02:01 (assay: IEDB peptide-MHC binding, purified MHC/competitive/radioactivity; ≥ and ≤ were set here for values at or beyond the usual limits of such assays). Conditions: source organism: Hepacivirus hominis.

Sequence	IC50 [nM]
VLAALAAYCL	100

Each sequence was assayed against HLA-A*03:01 in the same assay as above. Conditions: source organism: Hepacivirus hominis.

Sequence	IC50 [nM]
HLIFCHSKK	400
HLIFCHSKKK	385
RLLAPITAY	4
WMNSTGFTK	189
HLHAPTGSGK	17
TLHGPTPLLY	112
AVCTRGVAK	385

The sequences below were run against HLA-A*11:01 in the same assay as above. Conditions: source organism: Hepacivirus hominis.

Sequence	IC50 [nM]
SVPAEILRK	13
